Data on 10 molecules can be found in publication PMC10057298, “Kinetic Characterization and Catalytic Mechanism of N-Acetylornithine Aminotransferase Encoded by slr1022 Gene from Synechocystis sp. PCC6803” (International Journal of Molecular Sciences, 2023).

Substitutions are numbered along the chain they refer to. Numbers in names are those of the source.

One data set concerns the target T1, Slr1022 (Synechocystis sp. PCC 6803, UniProt P73133).
T1 construct: gene argD
T1 sequence (P73133 1-429): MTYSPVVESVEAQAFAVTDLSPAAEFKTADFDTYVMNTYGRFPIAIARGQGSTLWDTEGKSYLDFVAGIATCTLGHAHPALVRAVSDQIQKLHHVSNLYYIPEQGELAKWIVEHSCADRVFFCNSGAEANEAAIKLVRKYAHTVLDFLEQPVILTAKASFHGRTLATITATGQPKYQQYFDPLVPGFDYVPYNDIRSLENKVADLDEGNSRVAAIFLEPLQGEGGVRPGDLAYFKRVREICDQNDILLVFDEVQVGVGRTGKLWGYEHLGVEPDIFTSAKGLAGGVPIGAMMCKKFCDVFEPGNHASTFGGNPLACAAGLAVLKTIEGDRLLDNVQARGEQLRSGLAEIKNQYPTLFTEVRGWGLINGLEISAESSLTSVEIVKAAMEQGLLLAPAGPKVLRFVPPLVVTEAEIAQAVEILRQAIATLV
Nature of the data set: UV-visible absorption at […] nm (internal aldimine). It counts as binding. Particulars: 100 mmol/L Tris-HCl pH 8.5; covalent (Schiff base).

Data set [1] concerns the molecule itself. Nature of the data set: SEC; FPLC, Bio-Rad NGC system, ENrich SEC 650 gel filtration column, mobile phase standard PBS without exogenous PLP; mass calibrated with myoglobin, ovalbumin, bovine serum albumin and gamma-globulin.
Substrate in data set [2]: NCCC[C@H](N)C(=O)O
Put plainly: purified protein. Particulars: 0.5 mmol/L α-KG, 0.1 mmol/L PLP, 6 mmol/L NAD+, 100 mmol/L Tris-HCl pH 8.5, 25 °C, apparent.

Substrate in data set [3]: NCCCC(=O)O
Nature of the data set: purified protein. Particulars: 0.5 mmol/L α-KG, 0.05 mmol/L PLP, 2 mmol/L Mg2+, 2 mmol/L NADP+, 100 mmol/L Tris-HCl pH 8.5, 25 °C, apparent.

Substrate in data set [4]: O=C(O)CCC(=O)C(=O)O
Nature of the data set: purified protein. It counts as biochemical, Synechocystis sp. PCC 6803. Particulars: 100 mmol/L Orn as amino donor, 0.1 mmol/L PLP, 6 mmol/L NAD+, 100 mmol/L Tris-HCl pH 8.5, 25 °C, apparent.

Substrate in data set [5]: CC(=O)N[C@@H](CCCN)C(=O)O
Put plainly: purified protein. Particulars: saturating α-KG, 0.1 mmol/L PLP, 6 mmol/L NAD+, 100 mmol/L Tris-HCl pH 8.5, 25 °C, apparent. It counts as biochemical, Synechocystis sp. PCC 6803.

On to `Cc1ncc(COP(=O)(O)O)c(C=O)c1O` [PLP], for which the “UV-visible absorption at 410 nm (internal aldimine)” value at Slr1022 is “indicating that the cofactor PLP was bound to Slr1022 in the form of internal aldimine”.

B1: recombinant Slr1022 protein (N-acetylornithine aminotransferase encoded by slr1022 gene from Synechocystis sp. PCC6803) (enzyme, UniProt P73133 1-429, looked up)
chain: T1 sequence (P73133 1-429)
notes: N-acetylornithine aminotransferase (AcOAT) encoded by the slr1022 (argD) gene of Synechocystis sp; PCC6803; monomer printed as 49 kDa; The purified protein carries the cofactor PLP as internal aldimine (absorption at 410 nm); also called AcOAT; wild-type Slr1022; source: E. coli BL21 (DE3), pET28a-slr1022, purified (Ni-NTA)
For B1, the “stoichiometry N” value in data set [1] worked out at 2. For the same molecule, in “purified protein [2]”, the Km stood at 20900 ± 3500 µM, the kcat was determined as 0.16 s⁻¹ and the kcat/Km came to 7.7 M⁻¹ s⁻¹. In addition, in “purified protein [3]”, the Km is 78100 ± 18700 µM, the kcat is 0.14 s⁻¹ and the kcat/Km was found to be 1.8 M⁻¹ s⁻¹. For the same molecule, in the data set “purified protein [4]”, the Michaelis constant (Km) is 130 ± 30 µM, the kcat was 0.11 ± 0.01 s⁻¹ and the kcat/Km is 846 M⁻¹ s⁻¹.

B2: Slr1022 (Synechocystis sp. PCC 6803 substr. Kazusa; Q254A) (protein)
chain: T1 sequence (P73133 1-429) with Q254A
As to B2, in “purified protein [5]”, the Michaelis constant (Km) was found to be 110 ± 10 µM and the kcat was 0.02 ± 0.0005 s⁻¹.

B3: Slr1022 (Synechocystis sp. PCC 6803 substr. Kazusa; T308A) (protein)
chain: T1 sequence (P73133 1-429) with T308A
B3: in the data set “purified protein [5]”, the Km is 140 ± 20 µM and the kcat is 0.007 ± 0.002 s⁻¹.

B4: Slr1022 (Synechocystis sp. PCC 6803 substr. Kazusa; E223S) (protein)
chain: T1 sequence (P73133 1-429) with E223S
Take B4: in the data set “purified protein [5]”, the Km came out at 8810 ± 2960 µM and the kcat was found to be 3.67 ± 0.43 s⁻¹.

B5: Slr1022 (Synechocystis sp. PCC 6803 substr. Kazusa; D251E) (protein)
chain: T1 sequence (P73133 1-429) with D251E
For the molecule B5, in the data set “purified protein [5]”, the Michaelis constant (Km) turned out to be 1390 ± 220 µM and the kcat is 0.47 ± 0.03 s⁻¹.

B6: Slr1022 (Synechocystis sp. PCC 6803 substr. Kazusa; Y39F) (protein)
chain: T1 sequence (P73133 1-429) with Y39F
For B6, in the data set “purified protein [5]”, the Km amounted to 470 ± 50 µM and the kcat amounted to 0.17 ± 0.01 s⁻¹.

B7: Slr1022 (Synechocystis sp. PCC 6803 substr. Kazusa; S125A) (protein)
chain: T1 sequence (P73133 1-429) with S125A
With B7, in the data set “purified protein [5]”, the Km amounted to 230 ± 20 µM and the kcat worked out at 0.32 ± 0.01 s⁻¹.

B8: Slr1022 (Synechocystis sp. PCC 6803 substr. Kazusa; A127S) (protein)
chain: T1 sequence (P73133 1-429) with A127S
B8: in “purified protein [5]”, the Km stood at 590 ± 120 µM and the kcat is 0.21 ± 0.01 s⁻¹.

B9: Slr1022 (Synechocystis sp. PCC 6803 substr. Kazusa; E223A) (protein)
chain: T1 sequence (P73133 1-429) with E223A
Take B9: in “purified protein [5]”, the Michaelis constant (Km) amounted to 7770 ± 1760 µM and the kcat came to 1.17 ± 0.09 s⁻¹.
